The values below come from US12352767B2, “Method of treating cognitive decline associated with neurological diseases based on a decrease in FLT4 expression or activity” (University of Virginia Patent Foundation, priority 2018, dated 2025).

In test [1] the test system is meningeal lymphatic vessels. The test can be described thus: Meningeal whole-mount immunostaining (LYVE-1/CD31): lymphatic vessel area and diameter, blood vessel coverage. The method, then: Selective ablation of the meningeal lymphatic vessels was achieved by i.c.m. injection and transcranial photoconversion of Visudyne® (verteporfin for injection, Valeant Ophtalmics). Visudyne was reconstituted following manufacturer instructions and 5 μL was injected i.c.m. following the previously described procedure. […] Each spot was irradiated with a light dose of 50 J/cm^2 at an intensity of 600 mW/cm^2 for a total of 83 s. Controls were injected with the same volume of Visudyne (without the photoconversion step) or sterile saline plus photoconversion (vehicle/photoconversion). The scalp skin was then sutured, the mice were subcutaneously injected with ketoprofen (2 mg/Kg) and allowed to recover on a heating pad until fully awake.
A hydrogel of 1.4% hyaluronic acid and 3% methylcellulose alone (vehicle) or with 200 ng/mL of encapsulated human VEGF-C (PeproTech) or VEGF-C156S (R&D Systems) was prepared as described elsewhere^49. Briefly, lyophilized, sterile methylcellulose (4000 cP, Sigma-Aldrich) and sterile hyaluronic acid (1500-1800 kDa, Sigma-Aldrich) were sequentially dissolved in sterile 0.1 M phosphate buffered saline (PBS) at 4° C. overnight. Lyophilized VEGF-C or VEGF-C156S were resuspended as particulate at 2000 ng/mL in 0.5% sterile methylcellulose in PBS. The particulate solution, or vehicle 0.5% methylcellulose, was mixed into the hydrogel pre-solution at 1:10, and loaded into a syringe for gelation at 37° C. […] The hydrogels were prepared on the day of the experiment and kept warm inside the individual syringes until applied onto the mouse's skull. […] An incision was made in the scalp skin and the skull was thinned at the junction of all sinuses and above the transverse sinus. The shear-thinning properties of the polymers allowed the extrusion of 100 μL of each hydrogel solution from the syringe into the thinned skull surface. The scalp skin was then sutured on top of the solidified hydrogel, the mice were subcutaneously injected with ketoprofen (2 mg/Kg) and allowed to recover on a heating pad until fully awake.
Mice were given a lethal dose of anesthetics by intraperitoneal (i.p.) injection of Euthasol (10% v/v in saline). When needed, CSF was collected from the cisterna magna using a 0.5 mm diameter borosilicate glass pipette with internal filament and immediately stored at −80° C. Mice were then transcardially perfused with ice cold PBS with heparin (10 U/mL). Deep cervical lymph nodes were dissected and drop fixed in 4% paraformaldehyde (PFA) for 12 hours at 4° C. After stripping the skin and muscle from the bone the head was collected and drop fixed in 4% PFA. […] The brains were kept in 4% PFA for additional 24 hours (48 hours in total). […]

For the next test, the system named is brain parenchyma. Description: Brain perfusion/influx by CSF tracer OVA-A647 (brain sections). It is filed as in vivo, mice. The conditions noted are these: old mice. As to the method: (§1) Mice were anaesthetized by intraperitoneal (i.p.) injection of a mixed solution of ketamine (100 mg/Kg) and xylazine (10 mg/Kg) in saline. The skin of the neck was shaved and cleaned with iodine and 70% ethanol, ophthalmic solution placed on the eyes to prevent drying and the mouse's head was secured in a stereotaxic frame. After making a skin incision, the muscle layers were retracted and the cisterna magna exposed. Using a Hamilton syringe (coupled to a 33-gauge needle), the volume of the desired tracer solution was injected into the CSF-filled cisterna magna compartment. For brain CSF influx and lymphatic drainage experiments, 2 or 5 μL of Alexa Fluor® 594 or 647 conjugated OVA (Thermo Fisher Scientific), at 0.5 mg/mL in artificial CSF (#597316, Harvard Apparatus U.K.), were injected at a rate of 2.5 μL/min. After injecting, the syringe was left in place for additional 2 min to prevent back-flow of CSF.

Test [2] has as its system meningeal lymphatic drainage. The test can be described thus: Drainage of CSF tracer (OVA-A647) into deep cervical lymph nodes. It is filed as in vivo, mice. As to the method:
as §1

The test system of test [3] is meningeal lymphatic vessels. The following applies: recombinant VEGF-C, previously shown (ref. 4); cited from earlier work.
In the next test the target is VEGFR3 (Homo sapiens, UniProt P35916). The following applies: VEGFR3 vs VEGFR2 (refs. 34, 36); cited from earlier work.
Chain of VEGFR3 (P35916 25-1363, species assumed): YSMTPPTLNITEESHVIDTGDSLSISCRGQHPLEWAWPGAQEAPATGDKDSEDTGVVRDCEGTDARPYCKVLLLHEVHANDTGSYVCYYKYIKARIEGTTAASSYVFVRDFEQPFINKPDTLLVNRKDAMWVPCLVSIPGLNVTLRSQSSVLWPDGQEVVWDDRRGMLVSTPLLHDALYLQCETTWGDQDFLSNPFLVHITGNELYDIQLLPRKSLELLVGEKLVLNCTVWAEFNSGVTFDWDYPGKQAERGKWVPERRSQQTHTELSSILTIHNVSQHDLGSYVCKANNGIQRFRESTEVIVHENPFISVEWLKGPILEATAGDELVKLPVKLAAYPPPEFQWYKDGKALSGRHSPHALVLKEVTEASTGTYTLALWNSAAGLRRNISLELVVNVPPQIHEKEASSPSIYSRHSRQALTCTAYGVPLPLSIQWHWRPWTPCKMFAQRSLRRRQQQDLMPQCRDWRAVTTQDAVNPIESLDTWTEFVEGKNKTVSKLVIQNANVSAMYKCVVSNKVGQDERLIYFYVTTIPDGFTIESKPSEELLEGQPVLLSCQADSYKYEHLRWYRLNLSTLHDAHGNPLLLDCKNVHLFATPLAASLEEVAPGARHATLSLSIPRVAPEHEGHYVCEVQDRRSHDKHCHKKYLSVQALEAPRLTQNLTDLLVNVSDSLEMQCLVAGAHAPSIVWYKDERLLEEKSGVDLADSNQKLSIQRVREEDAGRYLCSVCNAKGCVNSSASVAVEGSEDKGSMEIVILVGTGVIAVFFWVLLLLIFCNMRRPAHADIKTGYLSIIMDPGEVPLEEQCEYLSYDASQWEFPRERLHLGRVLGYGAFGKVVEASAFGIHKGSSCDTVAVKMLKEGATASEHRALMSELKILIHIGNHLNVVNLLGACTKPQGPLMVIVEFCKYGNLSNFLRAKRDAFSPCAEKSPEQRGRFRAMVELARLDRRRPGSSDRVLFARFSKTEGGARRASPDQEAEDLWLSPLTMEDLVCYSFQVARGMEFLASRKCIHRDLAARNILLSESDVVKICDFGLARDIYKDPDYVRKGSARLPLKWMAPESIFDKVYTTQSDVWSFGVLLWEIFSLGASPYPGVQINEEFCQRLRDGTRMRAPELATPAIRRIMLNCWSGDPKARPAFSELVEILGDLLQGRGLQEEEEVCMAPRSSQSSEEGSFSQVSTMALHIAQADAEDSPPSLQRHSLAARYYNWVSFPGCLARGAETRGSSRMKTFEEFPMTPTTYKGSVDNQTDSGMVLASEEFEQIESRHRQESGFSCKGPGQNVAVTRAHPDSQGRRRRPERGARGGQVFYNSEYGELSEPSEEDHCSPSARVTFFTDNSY

Entries after “also recorded” stand apart in the source; their conditions may differ.

B1: VEGF-C: recombinant human VEGF-C (PeproTech) encapsulated in hyaluronic acid/methylcellulose hydrogel for transcranial delivery (protein, UniProt P49767 112-227, looked up)
Vascular endothelial growth …: AHYNTEILKSIDNEWRKTQCMPREVCIDVGKEFGVATNTFFKPPCVSVYRCGGCCNSEGLQCMNTSTSYLSKTLFEITVPLSQGPKPVTISFANHTSCRCMSKLDVYRQVHSIIRR
modifications: in hyaluronic acid/methylcellulose hydrogel
notes: recombinant human VEGF-C (PeproTech) encapsulated in hyaluronic acid/methylcellulose hydrogel for transcranial delivery
Take B1: the “meningeal lymphatic vessel diameter (superior sagittal sinus)” value in test [1] (young/adult (3 months) and old (20-24 months) mice, hydrogel VEGF-C 200 ng/mL transcranial, 4 weeks, vs vehicle) is “increased diameter; also recorded: significant increase”. Further, the “brain perfusion by CSF macromolecules (OVA-A647 influx)” value in the test on brain parenchyma (transcranial hydrogel VEGF-C) is recorded as “enhanced brain perfusion; also recorded: significantly increased”. Also, the “meningeal lymphatic function (OVA-A647 drainage into dCLNs)” value in test [2] (old mice, transcranial hydrogel VEGF-C vs vehicle) is “significant increase; also recorded: increased drainage”; in test [2] (young-adult mice, transcranial hydrogel VEGF-C), “did not respond”. In addition, the “diameter of meningeal lymphatic vessels” value in test [3] is on record as “increases the diameter”.

B2: VEGF-C156S: mutant VEGF-C protein that binds specifically to VEGFR3, delivered in hydrogel transcranially (protein, UniProt P49767 112-227, looked up, variant C156S)
Vascular endothelial growth …: AHYNTEILKSIDNEWRKTQCMPREVCIDVGKEFGVATNTFFKPPSVSVYRCGGCCNSEGLQCMNTSTSYLSKTLFEITVPLSQGPKPVTISFANHTSCRCMSKLDVYRQVHSIIRR
modifications: delivered in hydrogel
With B2, the “meningeal lymphatic diameter (LYVE-1+ vessels, superior sagittal sinus)” value in test [1] (old mice, hydrogel VEGF-C156S 200 ng/mL transcranial vs vehicle) is given as “significant increase; also recorded: increased diameter”. Besides, the “paravascular influx of tracer into the brain (OVA-A647 area fraction)” value in the test on brain parenchyma (transcranial VEGF-C156S) is on record as “significant increase”. In addition, in test [2] (old mice, transcranial VEGF-C156S vs vehicle), the “drainage of tracer from the CSF (OVA-A647 area fraction in dCLNs)” value is “significant increase”. Also, the receptor binding specificity entry with VEGFR3 is “binds specifically to VEGFR3 and spares its effects on VEGFR2”.
